From the supplement of paper PMC5998384

How the values were obtained:
HeLa Kyoto [1] = assay: melting temperature (median over replicates), in situ; higher = more thermally stable
HeLa Kyoto [2] = assay: solubility change mitosis vs G1/S (difference of NP-40 vs SDS log2 ratios) (log2 ratio difference); higher = more soluble in mitosis
HeLa Kyoto [3] = assay: solubility in G1/S (NP-40 vs SDS abundance) (log2 ratio); higher = more soluble; conditions: cell cycle stage: G1/S
HeLa Kyoto [4] = assay: thermal stability score vs G1/S (z-score of summed log2 fold changes over temperatures); higher = more thermally stable than in G1/S
[5] = cell cycle stage: early G1 (4.5 h after nocodazole release)
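Throughout, for melting temperature (median over replicates), in situ: HeLa Kyoto cells synchronized by double thymidine or nocodazole block, proteins quantified by TMT10plex mass spectrometry, three independent biological replicates.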
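Throughout, for solubility change mitosis vs G1/S (difference of NP-40 vs SDS log2 ratios): synchronized HeLa Kyoto cells (double thymidine block for G1/S, nocodazole release for mitosis), protein amounts in NP-40 versus SDS lysates quantified by mass spectrometry, three biological replicates.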
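Throughout, for solubility in G1/S (NP-40 vs SDS abundance): HeLa Kyoto cells arrested at G1/S by double thymidine block, proteins quantified by TMT10plex mass spectrometry in mild NP-40 versus SDS extracts, three biological replicates.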
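Throughout, for thermal stability score vs G1/S (z-score of summed log2 fold changes over temperatures): synchronized HeLa Kyoto cells, proteins quantified by TMT10plex mass spectrometry, three biological replicates, mitosis taken 0.5 h after nocodazole release, G1/S directly after double thymidine block.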

Sequence	melting temperature (HeLa Kyoto [1]; cell cycle stage: G1/S) [°C]	melting temperature (HeLa Kyoto [1]; cell cycle stage: mitosis) [°C]	solubility change mitosis (log2) (HeLa Kyoto [2])	solubility in G1/S (log2) (HeLa Kyoto [3])	thermal stability score (HeLa Kyoto [4]; [5])	thermal stability score (HeLa Kyoto [4]; cell cycle stage: mitosis)
MSLWGLVSKMPPEKVQRLYVDFPQHLRHLLGDWLESQPWEFLVGSDAFCCNLASALLSDTVQHLQASVGEQGEGSTILQHISTLESIYQRDPLKLVATFRQILQGEKKAVMEQFRHLPMPFHWKQEELKFKTGLRRLQHRVGEIHLLREALQKGAEAGQVSLHSLIETPANGTGPSEALAMLLQETTGELEAAKALVLKRIQIWKRQQQLAGNGAPFEESLAPLQERCESLVDIYSQLQQEVGAAGGELEPKTRASLTGRLDEVLRTLVTSCFLVEKQPPQVLKTQTKFQAGVRFLLGLRFLGAPAKPPLVRADMVTEKQARELSVPQGPGAGAESTGEIINNTVPLENSIPGNCCSALFKNLLLKKIKRCERKGTESVTEEKCAVLFSASFTLGPGKLPIQLQALSLPLVVIVHGNQDNNAKATILWDNAFSEMDRVPFVVAERVPWEKMCETLNLKFMAEVGTNRGLLPEHFLFLAQKIFNDNSLSMEAFQHRSVSWSQFNKEILLGRGFTFWQWFDGVLDLTKRCLRSYWSDRLIIGFISKQYVTSLLLNEPDGTFLLRFSDSEIGGITIAHVIRGQDGSPQIENIQPFSAKDLSIRSLGDRIRDLAQLKNLYPKKPKDEAFRSHYKPEQMGKDGRGYVPATIKMTVERDQPLPTPELQMPTMVPSYDLGMAPDSSMSMQLGPDMVPQVYPPHSHSIPPYQGLSPEESVNVLSAFQEPHLQMPPSLGQMSLPFDQPHPQGLLPCQPQEHAVSSPDPLLCSDVTMVEDSCLSQPVTAFPQGTWIGEDIFPPLLPPTEQDLTKLLLEGQGESGGGSLGAQPLLQPSHYGQSGISMSHMDLRANPSW [STAT6]	48.4	49.6	-0.111	0.0515	0.798	2.24
MSLYDDLGVETSDSKTEGWSKNFKLLQSQLQVKKAALTQAKSQRTKQSTVLAPVIDLKRGGSSDDRQIVDTPPHVAAGLKDPVPSGFSAGEVLIPLADEYDPMFPNDYEKVVKRQREERQRQRELERQKEIEEREKRRKDRHEASGFARRPDPDSDEDEDYERERRKRSMGGAAIAPPTSLVEKDKELPRDFPYEEDSRPRSQSSKAAIPPPVYEEQDRPRSPTGPSNSFLANMGGTVAHKIMQKYGFREGQGLGKHEQGLSTALSVEKTSKRGGKIIVGDATEKDASKKSDSNPLTEILKCPTKVVLLRNMVGAGEVDEDLEVETKEECEKYGKVGKCVIFEIPGAPDDEAVRIFLEFERVESAIKAVVDLNGRYFGGRVVKACFYNLDKFRVLDLAEQV [RBM17]	48.3	49.3	0.318	-0.32	0.948	4.62
MSLYPSLEDLKVDKVIQAQTAFSANPANPAILSEASAPIPHDGNLYPRLYPELSQYMGLSLNEEEIRANVAVVSGAPLQGQLVARPSSINYMVAPVTGNDVGIRRAEIKQGIREVILCKDQDGKIGLRLKSIDNGIFVQLVQANSPASLVGLRFGDQVLQINGENCAGWSSDKAHKVLKQAFGEKITMTIRDRPFERTITMHKDSTGHVGFIFKNGKITSIVKDSSAARNGLLTEHNICEINGQNVIGLKDSQIADILSTSGTVVTITIMPAFIFEHIIKRMAPSIMKSLMDHTIPEV [SDCBP]	52.6	51.4	-0.0317	0.00564	-1.02	-6.31
MSNKEGSGGFRKRKHDNFPHNQRREGKDVNSSSPVMLAFKSFQQELDARHDKYERLVKLSRDITVESKRTIFLLHRITSAPDMEDILTESEIKLDGVRQKIFQVAQELSGEDMHQFHRAITTGLQEYVEAVSFQHFIKTRSLISMDEINKQLIFTTEDNGKENKTPSSDAQDKQFGTWRLRVTPVDYLLGVADLTGELMRMCINSVGNGDIDTPFEVSQFLRQVYDGFSFIGNTGPYEVSKKLYTLKQSLAKVENACYALKVRGSEIPKHMLADVFSVKTEMIDQEEGIS [TSNAX]	54.7	56.3	-0.0987	0.379	-0.435	-1.45
MSNMEKHLFNLKFAAKELSRSAKKCDKEEKAEKAKIKKAIQKGNMEVARIHAENAIRQKNQAVNFLRMSARVDAVAARVQTAVTMGKVTKSMAGVVKSMDATLKTMNLEKISALMDKFEHQFETLDVQTQQMEDTMSSTTTLTTPQNQVDMLLQEMADEAGLDLNMELPQGQTGSVGTSVASAEQDELSQRLARLRDQV [CHMP1B]	51.8	52.2	0.158	0.304	0.0467	-0.997
